Results on 14 molecules are retold here after US20240182563A1 (GENOME, published 2024).

T1: human CNTN4 antigen expressed on the cell membrane of 293FT cells (human) (UniProt Q8IWV2)
T1 sequence (looked up): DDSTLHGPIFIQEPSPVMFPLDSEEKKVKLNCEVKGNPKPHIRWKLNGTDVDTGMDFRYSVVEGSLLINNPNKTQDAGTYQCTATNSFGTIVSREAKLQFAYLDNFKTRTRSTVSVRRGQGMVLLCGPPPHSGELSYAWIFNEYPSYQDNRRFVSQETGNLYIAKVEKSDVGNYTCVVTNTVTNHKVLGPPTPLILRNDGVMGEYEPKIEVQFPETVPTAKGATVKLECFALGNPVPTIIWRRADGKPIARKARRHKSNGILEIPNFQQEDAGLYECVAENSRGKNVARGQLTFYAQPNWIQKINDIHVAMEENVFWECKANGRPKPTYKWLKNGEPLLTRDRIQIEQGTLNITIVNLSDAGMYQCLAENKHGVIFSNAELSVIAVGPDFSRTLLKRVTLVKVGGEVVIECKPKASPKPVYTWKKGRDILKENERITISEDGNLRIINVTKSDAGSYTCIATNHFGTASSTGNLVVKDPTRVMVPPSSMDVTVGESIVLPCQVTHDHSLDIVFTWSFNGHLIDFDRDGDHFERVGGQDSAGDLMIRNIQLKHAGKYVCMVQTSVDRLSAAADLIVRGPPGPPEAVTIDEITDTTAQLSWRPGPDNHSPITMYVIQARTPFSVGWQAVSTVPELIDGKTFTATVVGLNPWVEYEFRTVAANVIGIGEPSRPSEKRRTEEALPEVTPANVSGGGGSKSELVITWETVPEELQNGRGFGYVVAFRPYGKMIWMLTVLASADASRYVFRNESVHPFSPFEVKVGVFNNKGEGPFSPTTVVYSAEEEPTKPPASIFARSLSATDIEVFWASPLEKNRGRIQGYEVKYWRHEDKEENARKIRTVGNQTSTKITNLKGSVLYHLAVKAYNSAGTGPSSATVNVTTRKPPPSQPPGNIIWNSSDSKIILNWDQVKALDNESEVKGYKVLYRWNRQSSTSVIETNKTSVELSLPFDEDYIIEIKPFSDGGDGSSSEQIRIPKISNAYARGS

T2: human CNTN4-rabbit Fc (human; rabbit, UniProt Q8IWV2 19-1000, limits assumed)
T2 construct: not shown: rabbit Fc
T2 sequence (looked up): T1 sequence (looked up)

T3: mouse CNTN4-rabbit Fc (mouse; rabbit, UniProt Q69Z26 19-1000, limits assumed)
T3 construct: not shown: rabbit Fc
T3 sequence (looked up): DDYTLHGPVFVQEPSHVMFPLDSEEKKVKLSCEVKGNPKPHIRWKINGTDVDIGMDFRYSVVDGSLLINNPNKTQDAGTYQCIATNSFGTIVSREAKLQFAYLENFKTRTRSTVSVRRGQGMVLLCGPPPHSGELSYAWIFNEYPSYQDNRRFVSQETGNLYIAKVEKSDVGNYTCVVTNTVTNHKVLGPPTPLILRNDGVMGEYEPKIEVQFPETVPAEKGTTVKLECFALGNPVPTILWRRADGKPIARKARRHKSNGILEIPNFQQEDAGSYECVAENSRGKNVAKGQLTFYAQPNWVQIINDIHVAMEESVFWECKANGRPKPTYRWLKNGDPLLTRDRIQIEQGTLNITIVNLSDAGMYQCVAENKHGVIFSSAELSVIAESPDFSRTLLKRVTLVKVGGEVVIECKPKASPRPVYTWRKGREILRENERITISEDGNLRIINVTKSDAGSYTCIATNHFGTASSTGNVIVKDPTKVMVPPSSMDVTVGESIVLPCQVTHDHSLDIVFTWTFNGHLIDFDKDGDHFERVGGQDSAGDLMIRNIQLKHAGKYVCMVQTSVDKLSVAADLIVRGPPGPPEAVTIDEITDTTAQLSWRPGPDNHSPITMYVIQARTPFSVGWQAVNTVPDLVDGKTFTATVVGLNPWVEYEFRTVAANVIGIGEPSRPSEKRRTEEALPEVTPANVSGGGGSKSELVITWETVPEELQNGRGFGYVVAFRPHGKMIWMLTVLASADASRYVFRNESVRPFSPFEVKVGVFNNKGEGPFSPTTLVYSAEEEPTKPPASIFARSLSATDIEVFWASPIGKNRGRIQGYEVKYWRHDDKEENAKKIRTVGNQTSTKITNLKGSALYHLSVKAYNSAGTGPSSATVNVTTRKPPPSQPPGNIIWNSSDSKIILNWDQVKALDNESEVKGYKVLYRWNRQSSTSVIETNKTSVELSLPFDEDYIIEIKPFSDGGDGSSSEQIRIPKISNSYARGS

T4: human CNTN4 antigen expressed on the cell membrane of 293FT cells (human, UniProt Q8IWV2 19-1000)
T4 construct: whole, on cells; also called Human CNTN4 transfected cell
T4 sequence (looked up): T1 sequence (looked up)

B1: anti-CNTN4 scFv-hCk S96 (scFv, part only; not given: linker and kappa constant region, V domains shown, not shown: another chain or arm of the molecule; a dimerising Fc or GST; small tags and cut ends)
VL: ALTQPSSVSANPGETVKITCSGSSGSYGYSWHQQKSPGSAPVTVIYESNKRPSNIPSRFSGSTSGSTSTLTITGVQADDEAVYFCGSADSSTTIAFGAGTTLTVL
VH: AVTLDESGGGLQTPGGTLSLVCKASGFTFSTYSMQWLRQAPGKGLEWVAGISNSGSSTVYGPAVKGRATISRDNGQSTVSLQLNNLRAEDTGTYYCAKSTYGGSWYAAYSIDEWGHGTEVIVSS
B2: anti-CNTN4 scFv-hCk S83 (scFv, part only; not given: linker and kappa constant region, not shown: a dimerising Fc or GST)
scFv, part: ALTQPSSVSANLGETVKITCSGGGGYSGSYYYGWYQQKSPAGAPDTVIYSNNQRPSNIPSRFSGSKSGSTGTLTITEDHAEDEAVYYCGSIDSSSNPGIFGAGTTLTVLAVTLDKSGGGLHTPGGALSLVCKASGFTFSRYIMQWVLQAPGKVLEWVASIRNGTTPKYGAAVKGRATISRDNGQSTVMLQLNSLTYDDTDAYYCDRGDDGDCICGGCAASIDIWCYATEVIVSS
B3: anti-CNTN4 IgG A13SF74 (antibody, V domains shown)
VH: AVTLDESGGGLQTPGGALSLVCKASGFTLSSYAMQWVRQAPGKGLEWVAGISKGGGSTAYGAAVKGRATISRDNGQSTVRLQLNNLRAEDTATYFCAKTTDSNCCSSDSIDAWGHGTEVIVSS
VL: ALTQPSSVSANPGETVKITCSGNSSGCSWYGWFQQKSPGSALVTVIYDNTNRPSNIPSRFSGSRSGSTATLTITGVQAEDEAIYFCGIADSSGAGIFGAGTTLTVL
notes: human IgG4 (S228P)
B4: anti-CNTN4 IgG A13SF19 (antibody, V domains shown)
VH: AVTLDESGGGLHTPGGALSLVCKASGFTFSSYGMAWVRQASGKGLEWVAGITSSGSSAGYGPAVKGRATISRDNGQSTVRLQLNNLRAEDTATYYCAKDGYIYSGADSDSIDAWGHGTEVIVSS
VL: ALTQPSSVSANLGGTVEITCSGSSSGNYGWYQQKSPGSAPVTVIYYNDERPSDIPSRFSGSKSGSTGTLTITGVQAEDEAVYYCGGYEGSTYVGIFGAGTTLTVL
notes: human IgG4 (S228P)
B5: anti-CNTN4 IgG A35SF75 (antibody, V domains shown)
VH: B4 VH with S41P
VL: ALTQPSSVSANPGVTVKITCSGGGGSYGWYQQKAPGSAPVTLIYNNTNRPSDIPSRFSGSRSGSTNTLTITGVQAEDEAVYFCGGYDSNTDYVGFGAGTTLTVL
notes: human IgG4 (S228P)
B6: anti-CNTN4 IgG A13SF20 (antibody, V domains shown)
VH: B4 VH with S41P
VL: ALTQPSSVSANLGGTVEITCSGGSGSYGWYQQKAPGSAPVTLIYNSDKRPSDIPSRFSGSKSGSTGTLTITGVQAEDEAVYFCGGYDSSAIFGAGTTLTVL
notes: human IgG4 (S228P)
B7: anti-CNTN4 IgG A35SF37 (antibody, V domains shown)
VH: B4 VH with S41P
VL: ALTQPSSVSANLGGTVKITCSGGSNNYGWYQQKSPGSAPVTVIYYNNKRPSDIPSRFSGSKSGSTATLTITGVQAEDEAVYFCGGYDSSSNSDVYGAGTTLTVL
notes: human IgG4 (S228P)
B8: anti-CNTN4 IgG A35WB1 (antibody, V domains shown)
VH: B4 VH with S41P
VL: ALTQPSSVSANPGETVKITCSGGSGSYGWYQQKSPGSAPVTVIYNNDQRPSNIPSRFSGSKSGSTATLTITGVQVEDEAVYFCGGWDSNSGAIFGAGTTLTVL
notes: human IgG4 (S228P)
B9: anti-CNTN4 IgG A35SF39 (antibody, V domains shown)
VH: B4 VH with S41P
VL: ALTQPSSVSANLGGTVKITCSGGSGSYGWYQQKSPGSAPVTVIYNNNNRPSDIPSRFSGSTSGSTGTLTITGVRAEDEAVYFCGGYDTDSPIFGAGTTLTVL
notes: human IgG4 (S228P)
B10: anti-CNTN4 IgG A35SF5 (antibody, V domains shown)
VH: B4 VH with S41P
VL: ALTQPSSVSANPGETVEITCSGSSGSNYGWYQQKSPGSAPVTLIYYNDNRPSDIPSRFSGSKSGSTGTLTITGVQVEDEAVYYCGAWESSSNPDIFGAGTTLTVL
notes: human IgG4 (S228P)
B11: anti-CNTN4 IgG A35SF90 (antibody, V domains shown)
VH: B4 VH with S41P
VL: ALTQPSSVSANLGGTVEITCSGSNNNNYGWYQQKTPGSAPVTLIYNNNQRPSDIPSRFSGSKSGSTGTLTITGVRAEDEAVYYCGGYDSSIYFDIFGAGTTLTVL
notes: human IgG4 (S228P)
B12: anti-CNTN4 IgG A35SF13 (antibody, V domains shown)
VH: B4 VH with S41P
VL: ALTQPSSVSANPGETVKITCSGGGGSYGWYQQKSPGSALVTVIYNNDNRPSNIPSRLSGSKSGSTATLTITGVRAEDEAVYFCGSADNNGYIAIFGAGTTLTVL
notes: human IgG4 (S228P)
B13: anti-CNTN4 IgG A35WB27 (antibody, V domains shown)
VH: B4 VH with S41P
VL: ALTQPSSVSANLGETVKITCSGGYSGYGWYQQKSPGSAPVTVIYYNDKRPSDIPSRFSGSKSGSTGTLTITGVRAEDEAVYFCGSADSSTGYVAIFGAGTTLTVL
notes: human IgG4 (S228P)
B14: anti-CNTN4 IgG A35SF3 (antibody, V domains shown)
VH: B4 VH with H12Q, A17G, S41P
VL: B6 VL with G23S, L42V, N45D, S46N, D47T, K48N, A90T
notes: human IgG4 (S228P)

Positions count from the first letter of the chain named. In names and notes the source's numbering stands.

The first test addresses T1, human CNTN4 antigen expressed on the cell membrane of 293FT cells (human). In words: FACS, 293FT cells transfected with human CNTN4, 40 ug/mL, anti-hCk-PE. A general note: Flow cytometry measures light scatter and fluorescence of single cells or particles in a stream.
Take B1: the Shift % is 1.69%.

For the molecule B2, the Shift % worked out at 5.27%.

A further test concerns the target T2, human CNTN4-rabbit Fc. The experiment in a line: ELISA, plate coated with antigen-rabbit Fc, anti-human IgG Fc-HRP. Here is the method:
(§1) An ELISA tests were performed on a total of 25 scFv-hCks and a total of 27 IgGs for which the expression was confirmed in Example 1.2. An ELISA plate was coated with 200 ng of antigens (human CNTN4-rabbit Fc or mouse CNTN4-rabbit Fc). 200 ng of a negative control (human antigen-rabbit Fc) for a tagging protein was used. For antibody binding, anti-CNTN4 scFv-hCk was serially diluted from a maximum of 1 μM to 0.001 nM by 1/10×each, and anti-CNTN4 IgG was serially diluted from a maximum of 10 nM to 0.00001 nM by 1/10×each, thereby binding to the antigen. Anti-human kappa-HRP or anti-human IgG Fc-HRP was used as the secondary antibody for antibody detection. Color was developed using ABTS, which is a color developing reagent, and the absorbance at 405 nm was measured.
Usually EC50 stands for the concentration at which the effect is half-maximal. Higher therefore signals weaker potency. With B3, the half-maximal effective concentration (EC50) was 0.11 nM.

In turn, B4 came in with an EC50 of 0.01 nM.

For B5, the EC50 is 0.21 nM.

The molecule B6 showed an EC50 of 0.01 nM.

B7 returned an EC50 of 0.01 nM.

For B8, the response was half-maximal at 0.02 nM (EC50).

With B9, the 50% effective concentration (EC50) turned out to be 0.01 nM.

The molecule B10 had a half-maximal effective concentration (EC50) of 0.01 nM.

Molecule B11 gave an EC50 of 0.01 nM.

In turn, B12 registered a concentration giving a half-maximal response (EC50) of 0.01 nM.

In turn, B13 displayed an EC50 of 0.01 nM.

Molecule B14 returned an EC50 of 0.01 nM.

Another test addresses T3, mouse CNTN4-rabbit Fc. Described as above. Here is the method: as §1
The molecule B3 had an EC50 of 0.12 nM.

B4 came in with an EC50 of 0.01 nM.

Regarding B5, a half-maximal response (EC50) required 0.2 nM.

The molecule B6 gave an EC50 of 0.01 nM.

As to B7, a half-maximal effect (EC50) was put at 0.01 nM.

B8: the midpoint of the response, the EC50, lay at 0.01 nM.

B9 yielded an EC50 of 0.01 nM.

In turn, B10 had a half-maximal effective concentration (EC50) of 0.01 nM.

Regarding B11, a half-maximal response (EC50) required 0.01 nM.

B12 yielded an EC50 of 0.02 nM.

As to B13, it took 0.01 nM to reach a half-maximal effect (EC50).

Regarding B14, a half-maximal response (EC50) required 0.01 nM.

The next test deals with T4, human CNTN4 antigen expressed on the …. In words: FACS, 293FT cells transfected with human CNTN4, 40 ug/mL, anti-hFc-PE.
B3: the Shift % was determined as 84.1%.

Turning to B4, the Shift % worked out at 79.6%.

As for B5, the Shift % is 84.8%.

For B6, the Shift % amounted to 82.2%.

Turning to B7, the Shift % is 86.6%.

Take B8: the Shift % was determined as 83.9%.

For B9, the Shift % is 80%.

In the case of B10, the Shift % worked out at 82.6%.

For B11, the Shift % was 82.8%.

For the molecule B12, the Shift % worked out at 82.1%.

For B13, the Shift % is 88.2%.

For the molecule B14, the Shift % amounted to 81.9%.
